# Test results: the Human Domainome abundance scans (Beltran et al. 2025)
# ± gives the uncertainty stated by the source.
# B1: Receptor-interacting serine/threonine-protein kinase 2, residues 438 to 518; numbered along this chain, O43353 (parent)
# chain: QWIQSKREDIVNQMTEACLNQSLDALLSRDLIMKEDYELVSTKPTRTSKVRQLLDTTDIQGEEFAKVIVQKLKDNKQMGLQ
# Variants of: B1
# Assay: abundance fitness (aPCA) (normalised: wild type 0, dead -1); higher = more abundant; growth selection in yeast, the domain comes from the species named
# Settings: Homo sapiens
row,Variant,abundance fitness
1,D58C,0.035 ± 0.096
2,D58F,0.001 ± 0.17
3,D58L,-0.047 ± 0.071
4,D58H,0.026 ± 0.11
5,D58N,-0.141 ± 0.42
6,D58A,0.021 ± 0.053
7,D58M,-0.033 ± 0.09
8,D58Y,-0.259 ± 0.17
9,D58T,-0.015 ± 0.07
10,D58E,0.107 ± 0.1
11,D58R,-0.154 ± 0.058
12,D58I,-0.007 ± 0.13
13,D58W,-0.081 ± 0.08
14,D58Q,0.041 ± 0.087
15,D58P,0.172 ± 0.064
16,D58V,0.041 ± 0.069
17,T56R,-0.533 ± 0.067
18,T56P,-0.612 ± 0.075
19,T56D,-0.849 ± 0.24
20,T56C,-0.105 ± 0.13
21,T56V,0.108 ± 0.056
22,T56N,-0.572 ± 0.22
23,T56F,0.037 ± 0.12
24,T56Y,0.046 ± 0.083

row,Variant,abundance fitness
1,T56G,-0.458 ± 0.061
2,T56I,0.19 ± 0.15
3,T56L,0.175 ± 0.061
4,T56W,0.125 ± 0.11
5,T56S,-0.273 ± 0.058
6,T56A,-0.161 ± 0.06
7,T56H,-0.206 ± 0.16
8,T56Q,-0.024 ± 0.083
9,T56E,-0.332 ± 0.16
10,D55W,-0.475 ± 0.064
11,D55P,-0.676 ± 0.079
12,D55Y,-0.445 ± 0.071
13,D55M,-0.03 ± 0.14
14,D55K,-0.469 ± 0.23
15,D55G,-0.51 ± 0.05
16,D55N,-0.347 ± 0.16
17,D55I,-0.168 ± 0.11
18,D55C,-0.122 ± 0.092
19,D55L,-0.132 ± 0.055
20,D55R,-0.162 ± 0.046
21,D55Q,-0.277 ± 0.13
22,D55V,-0.27 ± 0.065
23,D55T,-0.313 ± 0.071
24,D55H,-0.665 ± 0.16

row,Variant,abundance fitness
1,D55S,-0.153 ± 0.055
2,D55E,-0.015 ± 0.09
3,L54F,-0.936 ± 0.31
4,L54P,-0.553 ± 0.099
5,L54T,-0.925 ± 0.21
6,L54V,-0.777 ± 0.097
7,L54Q,-0.646 ± 0.12
8,L54A,-0.345 ± 0.097
9,L54K,-0.408 ± 0.25
10,L54C,-0.45 ± 0.06
11,L54S,-0.649 ± 0.079
12,L54M,-0.622 ± 0.17
13,L54W,-1.08 ± 0.16
14,L54D,-0.452 ± 0.2
15,L54E,-0.3 ± 0.22
16,L54R,-0.475 ± 0.048
17,L54Y,-0.814 ± 0.22
18,L54H,-0.542 ± 0.14
19,L54G,-0.519 ± 0.045
20,T57Y,-0.658 ± 0.17
21,T57G,-0.004 ± 0.041
22,T57N,-0.684 ± 0.37
23,T57A,0.045 ± 0.051
24,T57S,0.128 ± 0.062

row,Variant,abundance fitness
1,T57V,0.046 ± 0.055
2,T57F,-0.392 ± 0.12
3,T57M,0.108 ± 0.1
4,T57W,-0.738 ± 0.14
5,T57L,-0.002 ± 0.049
6,T57H,-0.268 ± 0.091
7,T57E,-0.082 ± 0.14
8,T57I,0.044 ± 0.25
9,T57Q,0.01 ± 0.089
10,T57D,-0.28 ± 0.078
11,T57C,0.125 ± 0.11
12,T57P,-0.04 ± 0.05
13,G61R,-0.155 ± 0.054
14,G61Q,-0.243 ± 0.094
15,G61P,-0.596 ± 0.086
16,G61F,-0.604 ± 0.29
17,G61I,-0.935 ± 0.32
18,G61C,-0.083 ± 0.078
19,G61V,-0.253 ± 0.09
20,G61M,-0.947 ± 0.45
21,G61A,-0.378 ± 0.1
22,G61K,0.024 ± 0.19
23,G61E,-0.125 ± 0.15
24,G61N,-0.055 ± 0.16

row,Variant,abundance fitness
1,G61T,-0.085 ± 0.13
2,G61D,-0.022 ± 0.14
3,G61L,-0.531 ± 0.089
4,G61Y,-0.279 ± 0.14
5,Q52H,-0.493 ± 0.15
6,Q52Y,-0.77 ± 0.41
7,Q52L,-0.57 ± 0.084
8,Q52P,-0.551 ± 0.079
9,Q52K,-0.442 ± 0.24
10,Q52W,-0.011 ± 0.058
11,Q52S,-0.196 ± 0.045
12,Q52V,-0.603 ± 0.081
13,Q52M,-0.42 ± 0.12
14,I59S,-0.29 ± 0.27
15,I59G,0.143 ± 0.29
16,I59C,-0.029 ± 0.26
17,I59L,0.231 ± 0.23
18,I59V,-0.171 ± 0.2
19,I59K,0.17 ± 0.26
20,I59Y,-0.342 ± 0.29
21,L53F,-0.785 ± 0.24
22,L53T,-0.417 ± 0.092
23,L53R,-0.643 ± 0.066
24,L53C,-0.433 ± 0.12

row,Variant,abundance fitness
1,L53K,-0.366 ± 0.26
2,L53V,-0.56 ± 0.085
3,L53G,-0.433 ± 0.057
4,L53I,-0.544 ± 0.16
5,L53W,-0.595 ± 0.095
6,L53P,-0.423 ± 0.064
7,L53D,-0.689 ± 0.21
8,L53Q,-0.567 ± 0.12
9,L53S,-0.679 ± 0.086
10,L53H,-0.666 ± 0.14
11,L53M,-0.517 ± 0.18
12,L53Y,-0.821 ± 0.18
13,L53A,-0.396 ± 0.072
14,L53E,-0.536 ± 0.14
15,L53N,-0.845 ± 0.22
16,Q60M,-0.188 ± 0.1
17,Q60N,-0.353 ± 0.1
18,Q60H,-0.199 ± 0.089
19,Q60Y,-0.008 ± 0.11
20,Q60P,-0.283 ± 0.06
21,Q60K,-0.361 ± 0.14
22,Q60T,-0.412 ± 0.08
23,Q60I,-0.302 ± 0.15
24,Q60R,-0.057 ± 0.047

row,Variant,abundance fitness
1,Q60E,-0.021 ± 0.17
2,Q60L,-0.321 ± 0.055
3,Q60F,-0.378 ± 0.16
4,Q60W,-0.745 ± 0.12
5,Q60G,-0.014 ± 0.054
6,Q60C,-0.054 ± 0.065
7,Q60V,-0.267 ± 0.056
8,Q60A,-0.08 ± 0.053
9,E62P,-0.493 ± 0.049
10,E62K,-0.798 ± 0.16
11,E62Q,-0.943 ± 0.15
12,E62I,-0.912 ± 0.31
13,E62W,-1.32 ± 0.3
14,E62G,-0.537 ± 0.069
15,E62M,-0.545 ± 0.1
16,E62H,-0.678 ± 0.13
17,E62F,-0.741 ± 0.25
18,E62T,-0.629 ± 0.081
19,E62V,-0.853 ± 0.092
20,E62L,-0.808 ± 0.094
21,E62S,-0.627 ± 0.055
22,E62A,-0.555 ± 0.067
23,E62D,-0.648 ± 0.23
